Experimental data as given in publication PMC3326396 (Biochemistry, 2012).

Target: the molecule itself
Assay: SEC

B1: N-terminal Strep2-(G4S)3-tagged PhaC purified from R. eutropha (enzyme, Ralstonia eutropha H16, UniProt P23608 2-589, looked up)
chain: ATGKGAAASTQEGKSQPFKVTPGPFDPATWLEWSRQWQGTEGNGHAAASGIPGLDALAGVKIAPAQLGDIQQRYMKDFSALWQAMAEGKAEATGPLHDRRFAGDAWRTNLPYRFAAAFYLLNARALTELADAVEADAKTRQRIRFAISQWVDAMSPANFLATNPEAQRLLIESGGESLRAGVRNMMEDLTRGKISQTDESAFEVGRNVAVTEGAVVFENEYFQLLQYKPLTDKVHARPLLMVPPCINKYYILDLQPESSLVRHVVEQGHTVFLVSWRNPDASMAGSTWDDYIEHAAIRAIEVARDISGQDKINVLGFCVGGTIVSTALAVLAARGEHPAASVTLLTTLLDFADTGILDVFVDEGHVQLREATLGGGAGAPCALLRGLELANTFSFLRPNDLVWNYVVDNYLKGNTPVPFDLLFWNGDATNLPGPWYCWYLRHTYLQNELKVPGKLTVCGVPVDLASIDVPTYIYGSREDHIVPWTAAYASTALLANKLRFVLGASGHIAGVINPPAKNKRSHWTNDALPESPQQWLAGAIEHHGSWWPDWTAWLAGQAGAKRAAPANYGNARYRAIEPAPGRYVKAKA
stoichiometry N: 2

B2: N-terminal-Strep2-(G4S)3-tagged PhaC purified from E. coli (enzyme, Ralstonia eutropha H16, UniProt P23608 2-589, looked up)
chain: ATGKGAAASTQEGKSQPFKVTPGPFDPATWLEWSRQWQGTEGNGHAAASGIPGLDALAGVKIAPAQLGDIQQRYMKDFSALWQAMAEGKAEATGPLHDRRFAGDAWRTNLPYRFAAAFYLLNARALTELADAVEADAKTRQRIRFAISQWVDAMSPANFLATNPEAQRLLIESGGESLRAGVRNMMEDLTRGKISQTDESAFEVGRNVAVTEGAVVFENEYFQLLQYKPLTDKVHARPLLMVPPCINKYYILDLQPESSLVRHVVEQGHTVFLVSWRNPDASMAGSTWDDYIEHAAIRAIEVARDISGQDKINVLGFCVGGTIVSTALAVLAARGEHPAASVTLLTTLLDFADTGILDVFVDEGHVQLREATLGGGAGAPCALLRGLELANTFSFLRPNDLVWNYVVDNYLKGNTPVPFDLLFWNGDATNLPGPWYCWYLRHTYLQNELKVPGKLTVCGVPVDLASIDVPTYIYGSREDHIVPWTAAYASTALLANKLRFVLGASGHIAGVINPPAKNKRSHWTNDALPESPQQWLAGAIEHHGSWWPDWTAWLAGQAGAKRAAPANYGNARYRAIEPAPGRYVKAKA
stoichiometry N: 2
